Measured values: the RNAGym collection of RNA variant scans (doi:10.1073/pnas.2313332121)

B1: TPR t1 (parent)
chain: GACCAAUCUGCCCUCAGAGCUCGAGAACAUCUUCGGAUGCAGAGGAGGCAGGCUUCGGUGGCGCGAUAGCGCCAACGUCCUCAACCUCCAAUGCAUCCCACCACAUGAUGAUGCCUGAAGAGCCUUGGUUUUUUG

Variants of: B1
Assay: polymerase ribozyme fitness, log enrichment relative to wild type (log ratio); higher = more active; in vitro selection for triplet polymerase activity
Procedure, shortened: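 Mutant libraries of both subunits of a heterodimeric triplet polymerase ribozyme were PCR-built, transcribed, and selected once in triplicate, with frozen incubation at −7 °C and capture of gel-excised extended constructs on streptavidin beads before RT-PCR. Illumina sequencing of input and output libraries was filtered to genotypes with ≥10 input reads and ≥1 read per output. Fitness is the logarithm of genotype enrichment over wild-type enrichment, using inverse-variance-weighted replicate averages. The logarithm is base 2.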

**Q.** For C40A G57C U81G C82G C97A A111U, which “polymerase ribozyme fitness (log ratio)” value is on record?
**A.** -6.79

**Q.** With C40U A43G G61A C97U as the variant, how does the “polymerase ribozyme fitness (log ratio)” value read?
**A.** -3.06

**Q.** With A41C A43U C53U U126C as the variant, how does the “polymerase ribozyme fitness (log ratio)” value read?
**A.** -2.72

**Q.** With A41U C104A as the variant, how does the “polymerase ribozyme fitness (log ratio)” value read?
**A.** -3.22

**Q.** For A41G C70U C82A U125G, which “polymerase ribozyme fitness (log ratio)” value is on record?
**A.** -1.79

**Q.** With C40A C56G G61A as the variant, how does the “polymerase ribozyme fitness (log ratio)” value read?
**A.** -4.03

**Q.** With A41C U106C A111C as the variant, how does the “polymerase ribozyme fitness (log ratio)” value read?
**A.** -2.11

**Q.** Which “polymerase ribozyme fitness (log ratio)” value does the source give for C40U G47A A118G here?
**A.** -2.47

**Q.** Which “polymerase ribozyme fitness (log ratio)” value does the source give for G39U C73U here?
**A.** -1.52

**Q.** With C40G C114G as the variant, how does the “polymerase ribozyme fitness (log ratio)” value read?
**A.** -4.17

**Q.** For C40G C49U, which “polymerase ribozyme fitness (log ratio)” value is on record?
**A.** -2.95

**Q.** For G39U G93A C123A, which “polymerase ribozyme fitness (log ratio)” value is on record?
**A.** -1.36

**Q.** For C40G U67C C70U U116C U133C, which “polymerase ribozyme fitness (log ratio)” value is on record?
**A.** -5.53

**Q.** With G39U C98U as the variant, how does the “polymerase ribozyme fitness (log ratio)” value read?
**A.** -1.66

**Q.** For A41U G77U C88G A111U, which “polymerase ribozyme fitness (log ratio)” value is on record?
**A.** -6.76

**Q.** Which “polymerase ribozyme fitness (log ratio)” value does the source give for C40A C72A A100C U132C here?
**A.** -2.7

**Q.** Which “polymerase ribozyme fitness (log ratio)” value does the source give for G39U C85A A90G A119U C123G U125G here?
**A.** -1.21

**Q.** Which “polymerase ribozyme fitness (log ratio)” value does the source give for A41G C49G C82U C85U U131G here?
**A.** -1.67

**Q.** Which “polymerase ribozyme fitness (log ratio)” value does the source give for C40G C64U U81A here?
**A.** -2.3

**Q.** Which “polymerase ribozyme fitness (log ratio)” value does the source give for G39U G60C here?
**A.** -0.892

**Q.** For C40G A41U G45A A91U, which “polymerase ribozyme fitness (log ratio)” value is on record?
**A.** -4.47

**Q.** With A41U C82G as the variant, how does the “polymerase ribozyme fitness (log ratio)” value read?
**A.** -2.37

**Q.** For C40A G71U G117C G120C, which “polymerase ribozyme fitness (log ratio)” value is on record?
**A.** -5.63

**Q.** Which “polymerase ribozyme fitness (log ratio)” value does the source give for C40U G45U G48U C82G A84G G120A here?
**A.** -2.88

**Q.** Which “polymerase ribozyme fitness (log ratio)” value does the source give for C40G C115U here?
**A.** -2.07

**Q.** With A41C U81A U133G as the variant, how does the “polymerase ribozyme fitness (log ratio)” value read?
**A.** -2.53

**Q.** With A41U C49U G69A as the variant, how does the “polymerase ribozyme fitness (log ratio)” value read?
**A.** -6.56

**Q.** With G39U G52C C53A A83U as the variant, how does the “polymerase ribozyme fitness (log ratio)” value read?
**A.** -3.01

**Q.** Which “polymerase ribozyme fitness (log ratio)” value does the source give for A41U A90C C115G here?
**A.** -4.39

**Q.** With A41C G117U as the variant, how does the “polymerase ribozyme fitness (log ratio)” value read?
**A.** -2.87

**Q.** With C40U A46G U78G as the variant, how does the “polymerase ribozyme fitness (log ratio)” value read?
**A.** -0.597

**Q.** Which “polymerase ribozyme fitness (log ratio)” value does the source give for C40A G71A G113A here?
**A.** -3.05

**Q.** For C40A C70A, which “polymerase ribozyme fitness (log ratio)” value is on record?
**A.** -2.89

**Q.** With C40U C62U G135U as the variant, how does the “polymerase ribozyme fitness (log ratio)” value read?
**A.** -1.68

**Q.** With A41G A46U G63A C82U U87G as the variant, how does the “polymerase ribozyme fitness (log ratio)” value read?
**A.** -2.41

**Q.** For C40A A90C G93U, which “polymerase ribozyme fitness (log ratio)” value is on record?
**A.** -1.13

**Q.** Which “polymerase ribozyme fitness (log ratio)” value does the source give for A41G G69A C85A here?
**A.** -5.81

**Q.** Which “polymerase ribozyme fitness (log ratio)” value does the source give for C40G G71A U125A here?
**A.** -2.35

**Q.** For C40G C79U C101U G113U, which “polymerase ribozyme fitness (log ratio)” value is on record?
**A.** -4.09

**Q.** For C40A C56U, which “polymerase ribozyme fitness (log ratio)” value is on record?
**A.** -0.58

**Q.** With A41G G61U C94U as the variant, how does the “polymerase ribozyme fitness (log ratio)” value read?
**A.** -0.449

**Q.** For C40U A43U G69U, which “polymerase ribozyme fitness (log ratio)” value is on record?
**A.** 0.0551

**Q.** For C40A U106A G113A, which “polymerase ribozyme fitness (log ratio)” value is on record?
**A.** -3.55

**Q.** With C40G C56U G77A as the variant, how does the “polymerase ribozyme fitness (log ratio)” value read?
**A.** -0.862

**Q.** With A41C C56G C85U C102U as the variant, how does the “polymerase ribozyme fitness (log ratio)” value read?
**A.** -5.51

**Q.** For A41C A74U U87C, which “polymerase ribozyme fitness (log ratio)” value is on record?
**A.** -0.35

**Q.** With C40A C89U G117A A121G as the variant, how does the “polymerase ribozyme fitness (log ratio)” value read?
**A.** -0.101

**Q.** Which “polymerase ribozyme fitness (log ratio)” value does the source give for C40A G52A G60A U81C A95U here?
**A.** -3.45

**Q.** With A41C G42U C104U C114A as the variant, how does the “polymerase ribozyme fitness (log ratio)” value read?
**A.** -3.04

**Q.** For A41G C73A C82A C115A G135U, which “polymerase ribozyme fitness (log ratio)” value is on record?
**A.** -2.65

**Q.** Which “polymerase ribozyme fitness (log ratio)” value does the source give for G39U U92A G110U U132A here?
**A.** -5.12

**Q.** For C40U C56G G63C, which “polymerase ribozyme fitness (log ratio)” value is on record?
**A.** -3.69

**Q.** For C40A G71U U131A, which “polymerase ribozyme fitness (log ratio)” value is on record?
**A.** -2.31

**Q.** Which “polymerase ribozyme fitness (log ratio)” value does the source give for C40U C99A here?
**A.** -4.45

**Q.** For C40U C99U, which “polymerase ribozyme fitness (log ratio)” value is on record?
**A.** -3.93

**Q.** With C40A A46U C114A as the variant, how does the “polymerase ribozyme fitness (log ratio)” value read?
**A.** -4.55

**Q.** Which “polymerase ribozyme fitness (log ratio)” value does the source give for C40U G47A U109A C114U here?
**A.** -6.24

**Q.** For C40U G44A A121U, which “polymerase ribozyme fitness (log ratio)” value is on record?
**A.** 0.301

**Q.** With A41C G61U C70G C101A A111C as the variant, how does the “polymerase ribozyme fitness (log ratio)” value read?
**A.** -5.73

**Q.** For G39U G45U C73G, which “polymerase ribozyme fitness (log ratio)” value is on record?
**A.** -2.79

**Q.** Which “polymerase ribozyme fitness (log ratio)” value does the source give for C40U G44A G63A here?
**A.** -1.6

**Q.** For G39U C62U C99U, which “polymerase ribozyme fitness (log ratio)” value is on record?
**A.** -5.08

**Q.** Which “polymerase ribozyme fitness (log ratio)” value does the source give for A41U C64U here?
**A.** -1.24

**Q.** With C40G C53A C123G as the variant, how does the “polymerase ribozyme fitness (log ratio)” value read?
**A.** 0.48

**Q.** With C40G C72G C73A U78G as the variant, how does the “polymerase ribozyme fitness (log ratio)” value read?
**A.** -4.57

**Q.** For A41U C72G G117C, which “polymerase ribozyme fitness (log ratio)” value is on record?
**A.** -5.06

**Q.** For C40A C49U, which “polymerase ribozyme fitness (log ratio)” value is on record?
**A.** -2.52

**Q.** For C40G C53G G61C C104A G113A, which “polymerase ribozyme fitness (log ratio)” value is on record?
**A.** -4.09

**Q.** Which “polymerase ribozyme fitness (log ratio)” value does the source give for A41G U54A G61C here?
**A.** -2.03

**Q.** Which “polymerase ribozyme fitness (log ratio)” value does the source give for C40U A46C C64U here?
**A.** -2.21

**Q.** For C40G A43G C114U, which “polymerase ribozyme fitness (log ratio)” value is on record?
**A.** -4.36

**Q.** Which “polymerase ribozyme fitness (log ratio)” value does the source give for A41C G69C A83G here?
**A.** -3.72

**Q.** With A41U C123U as the variant, how does the “polymerase ribozyme fitness (log ratio)” value read?
**A.** -0.183

**Q.** For A41G U112C, which “polymerase ribozyme fitness (log ratio)” value is on record?
**A.** 0.756

**Q.** With C40G G44C C72A U78G C94G A121C G128U as the variant, how does the “polymerase ribozyme fitness (log ratio)” value read?
**A.** -6.15

**Q.** For C40A G44A G45U A50C G93A, which “polymerase ribozyme fitness (log ratio)” value is on record?
**A.** -5.29

**Q.** Which “polymerase ribozyme fitness (log ratio)” value does the source give for C40A C53U G63A here?
**A.** -2.24

**Q.** For A41C C53U, which “polymerase ribozyme fitness (log ratio)” value is on record?
**A.** -0.83

**Q.** With C40A G63U C79A U130G as the variant, how does the “polymerase ribozyme fitness (log ratio)” value read?
**A.** -4.83

**Q.** With G39U C64U as the variant, how does the “polymerase ribozyme fitness (log ratio)” value read?
**A.** -0.207

**Q.** With C40U G42C G63U C85U U130A as the variant, how does the “polymerase ribozyme fitness (log ratio)” value read?
**A.** -5.03

**Q.** For G39U G47C G57U A84C, which “polymerase ribozyme fitness (log ratio)” value is on record?
**A.** -3.89

**Q.** With C40U G60A as the variant, how does the “polymerase ribozyme fitness (log ratio)” value read?
**A.** -0.683
